Patent US20250011363A1, “OPTIMIZED SHORTENED PEPTIDE THAT BINDS TO ACETYLCHOLINE RECEPTOR, AND USE THEREOF” (SKINMED CO., LTD., priority 2021, published 2025)

What follows are binders tested against acetylcholine receptor (assay: SPR, receptor immobilised on chip, peptide at 10 uM).

Row | Binder | Binding affinity (RU)
1 | RPKAKK [6mer-2-921] | 22 RU
2 | KNCWKR [6mer-2-915] | 29 RU
3 | KPCEKK [6mer-2-946] | 21 RU
4 | RASVKR [6mer-2-925] | 23 RU
5 | RNENKK [6mer-2-940] | 41 RU
6 | KYWGRR [6mer-2-952] | 24 RU
7 | KPEDKK [6mer-2-944] | 35 RU
8 | KCCFKK [6mer-2-904] | 30 RU
9 | KKCNKK [6mer-2-935] | 22 RU
10 | KKCERK [6mer-2-945] | 42 RU
11 | KKCARR [6mer-2-939] | 22 RU
12 | RPPFRR [6mer-2-948] | 28 RU
13 | RFDHKK [6mer-2-924] | 28 RU
14 | KMSGKR [6mer-2-911] | 21 RU
15 | KESVKK [6mer-2-953] | 25 RU
16 | KTDKRK [6mer-2-942] | 22 RU
17 | RYCFKR [6mer-2-931] | 29 RU
18 | RPNARR [6mer-2-949] | 39 RU
19 | RFNPRK [6mer-2-927] | 39 RU

Row | Binder | Binding affinity (RU)
20 | KYCDKK [6mer-2-906] | 40 RU
21 | RADEKK [6mer-2-951] | 42 RU
22 | KYNKRR [6mer-2-950] | 26 RU
23 | KFCIRR [6mer-2-928] | 28 RU
24 | RDEDKR [6mer-2-941] | 33 RU
25 | KNWMRK [6mer-2-918] | 35 RU
26 | KTTEKR [6mer-2-916] | 22 RU
27 | RMPERR [6mer-2-955] | 29 RU
28 | KIDHRR [6mer-2-943] | 41 RU
29 | RIEHKR [6mer-2-938] | 40 RU
30 | KKNPKK [6mer-2-903] | 40 RU
31 | KDNVRR [6mer-2-922] | 41 RU
32 | KNHMRK [6mer-2-929] | 26 RU
33 | RHEHRR [6mer-2-910] | 21 RU
34 | KDDIKK [6mer-2-914] | 25 RU
35 | KYKDRR [6mer-2-934] | 26 RU
36 | RIPWRR [6mer-2-932] | 35 RU
37 | RTMNRR [6mer-2-907] | 25 RU
38 | KFCWRR [6mer-2-956] | 28 RU

Row | Binder | Binding affinity (RU)
39 | RYSMKR [6mer-2-933] | 34 RU
40 | RFCWRK [6mer-2-917] | 23 RU
41 | KAKHKR [6mer-2-919] | 27 RU
42 | KPDVRK [6mer-2-902] | 26 RU
43 | RASHRR [6mer-2-937] | 35 RU
44 | RAPIRR [6mer-2-912] | 27 RU
45 | KTNWRK [6mer-2-947] | 41 RU
46 | RCCAKK [6mer-2-923] | 33 RU
47 | KYKKKR [6mer-2-908] | 33 RU
48 | KFKNRR [6mer-2-913] | 25 RU
49 | RYWDRK [6mer-2-901] | 34 RU
50 | RPTVKR [6mer-2-926] | 31 RU
51 | KPPAKK [6mer-2-936] | 21 RU
52 | RPKERR [6mer-2-905] | 26 RU
53 | RMTIKK [6mer-2-920] | 26 RU
54 | KCTIRK [6mer-2-954] | 32 RU
55 | RCNPRR [6mer-2-909] | 42 RU
56 | RTWIKR [6mer-2-930] | 37 RU
